Patent publication US20230075633A1 (SHANDONG BOAN BIOTECHNOLOGY, published 2023)
Where two headings read alike, the source gives them in different places.

Key:
[1] = molecular target: T1, human CD3 (human, UniProt P07766 23-207); experiment: cell-based or functional assay
[2] = molecular target: T1, human CD3; experiment: cell-based or functional assay; remark: listed apart in the source
[3] = molecular target: T2, human CEA (human, UniProt P06731 35-702); experiment: cell-based or functional assay
T2 sequence (looked up): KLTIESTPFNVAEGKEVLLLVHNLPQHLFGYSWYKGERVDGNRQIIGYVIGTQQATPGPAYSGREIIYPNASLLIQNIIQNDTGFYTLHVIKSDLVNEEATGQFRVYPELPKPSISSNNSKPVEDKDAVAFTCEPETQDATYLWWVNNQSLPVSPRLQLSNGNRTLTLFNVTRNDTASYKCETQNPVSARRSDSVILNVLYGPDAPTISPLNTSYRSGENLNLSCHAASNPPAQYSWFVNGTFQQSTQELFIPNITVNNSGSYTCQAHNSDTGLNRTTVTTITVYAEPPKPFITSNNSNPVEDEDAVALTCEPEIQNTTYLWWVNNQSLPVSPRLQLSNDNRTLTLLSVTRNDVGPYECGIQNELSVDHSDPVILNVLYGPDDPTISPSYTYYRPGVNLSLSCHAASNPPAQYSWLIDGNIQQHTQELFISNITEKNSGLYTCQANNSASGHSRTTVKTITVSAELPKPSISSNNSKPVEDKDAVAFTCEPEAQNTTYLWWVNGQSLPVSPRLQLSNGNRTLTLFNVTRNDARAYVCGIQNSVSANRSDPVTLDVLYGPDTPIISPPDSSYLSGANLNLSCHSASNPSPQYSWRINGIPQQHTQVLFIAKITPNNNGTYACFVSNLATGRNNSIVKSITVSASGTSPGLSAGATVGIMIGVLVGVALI

[4] = molecular target: T3, Cynomolgus monkey CD3 protein (cynomolgus monkey, UniProt Q95LI5 22-117); experiment: ELISA on cynomolgus monkey CD3 protein, curve fit
T3 sequence (looked up): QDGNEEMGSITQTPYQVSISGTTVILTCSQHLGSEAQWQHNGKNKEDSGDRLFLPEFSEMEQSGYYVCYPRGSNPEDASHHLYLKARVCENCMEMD

[5] = molecular target: T2, human CEA; experiment: cell-based or functional assay; remark: listed apart in the source

T1 sequence (P07766 23-207): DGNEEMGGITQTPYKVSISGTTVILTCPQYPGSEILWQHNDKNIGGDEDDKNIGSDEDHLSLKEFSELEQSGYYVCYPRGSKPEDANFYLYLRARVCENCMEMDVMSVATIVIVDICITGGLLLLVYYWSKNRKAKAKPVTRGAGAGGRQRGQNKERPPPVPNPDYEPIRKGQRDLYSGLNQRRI

| Binder | NFAT-luciferase in Jurkat cells: Bottom [1] | NFAT-luciferase in Jurkat cells: LogEC50 [1] | NFAT-luciferase in Jurkat cells: Span [1] | NFAT-luciferase in Jurkat cells: Top [1] | NFAT-luciferase in Jurkat cells: Bottom [2] | NFAT-luciferase in Jurkat cells: LogEC50 [2] | NFAT-luciferase in Jurkat cells: Span [2] | NFAT-luciferase in Jurkat cells: Top [2] | lysis of LS-174T cells by PBMC: Bottom [3] | lysis of LS-174T cells by PBMC: LogEC50 [3] | lysis of LS-174T cells by PBMC: Span [3] | lysis of LS-174T cells by PBMC: Top [3] | Bottom (best-fit) [4] | LogEC50 [4] | Span (best-fit) [4] | Top (best-fit) [4] | lysis of KATO III cells by PBMC: Bottom [5] | lysis of KATO III cells by PBMC: LogEC50 [5] | lysis of KATO III cells by PBMC: Span [5] | lysis of KATO III cells by PBMC: Top [5] |
| --- | --- | --- | --- | --- | --- | --- | --- | --- | --- | --- | --- | --- | --- | --- | --- | --- | --- | --- | --- | --- |
| CEA/CD3 parental BsAb (bispecific antibody, V domains shown, also called hT84.66/SP34 bispecific antibody; CEA/CD3 parental bispecific antibody; copies: 2 + 2 + 2 + 2) VH 1: EVQLVESGGGLVQPGGSLRLSCAASGFNIKDTYMHWVRQAPGKGLEWVARIDPAQGNTKYADSVKGRFTISADTSKNTAYLQMNSLRAEDTAVYYCAPFGYYVSDYAMAYWGQGTLVTVSS VL 1: DIQLTQSPSSLSASVGDRVTITCRAGESVDIFGVGFLHWYQQKPGKAPKLLIYRASNLESGVPSRFSGSGSRTDFTLTISSLQPEDFATYYCQQTNEDPYTFGQGTKVEIK VH 2: not shown VL 2: not shown | 39.9 | -1.52 | 1280 | 1320 | -1040 | -0.58 | 121000 | 120000 | 13.8 | -2.69 | 91.7 | 106 | 0.0164 | -1.65 | 4.09 | 4.1 | 60.1 | -1.85 | 53 | 113 |
| CEA/CD3OPT1a3b2b2 (bispecific antibody) chain 1: EVQLVESGGGLVQPGGSLRLSCAASGFNIKDTYMHWVRQAPGKGLEWVARIDPAQGNTKYADSVKGRFTISADTSKNTAYLQMNSLRAEDTAVYYCAPFGYYVSDYAMAYWGQGTLVTVSS chain 2: DIQLTQSPSSLSASVGDRVTITCRAGESVDIFGVGFLHWYQQKPGKAPKLLIYRASNLESGVPSRFSGSGSRTDFTLTISSLQPEDFATYYCQQTNEDPYTFGQGTKVEIK chain 3: EVQLVESGGGLVKPGGSLKLSCAASGFTFSTYAMNWVRQAPGKGLEWVARIRSKYNNYATYFADSVKDRFTISRDDSKNTAYLQMNNLRTEDTAVYYCVRHGNWGNSYISYWAYWGQGTTVTVSSQSVLTQPPSVSAAPGQRVTISCSGSTGAVTSGYYPNWYQQLPGTAPRLLIGGTKFLAPGTPDRFSGSSKSTSAALAISGVQSEDEADYYCALWYSNRWVFGGGTKLTVLG | – | – | – | – | 3450 | -0.0275 | 2670 | 6120 | – | – | – | – | – | – | – | – | – | – | – | – |
| CEA/CD3OPT3a (bispecific antibody, V domains shown, Same format as m1; copies: 2 + 2 + 2 + 2) VH 1: EVQLVESGGGLVQPGGSLRLSCAASGFNIKDTYMHWVRQAPGKGLEWVARIDPAQGNTKYADSVKGRFTISADTSKNTAYLQMNSLRAEDTAVYYCAPFGYYVSDYAMAYWGQGTLVTVSS VL 1: DIQLTQSPSSLSASVGDRVTITCRAGESVDIFGVGFLHWYQQKPGKAPKLLIYRASNLESGVPSRFSGSGSRTDFTLTISSLQPEDFATYYCQQTNEDPYTFGQGTKVEIK VH 2: not shown VL 2: not shown | 52.8 | -1.66 | 1400 | 1460 | – | – | – | – | 13.1 | -2.86 | 92.2 | 105 | 0.00466 | -1.94 | 4.01 | 4.02 | 54.7 | -2.21 | 48.1 | 103 |
| CEA/CD3OPT1a3b2a (bispecific antibody, V domains shown, Same format as m1; also called OPT SP34 1a3b2a; copies: 2 + 2 + 2 + 2) VH 1: EVQLVESGGGLVQPGGSLRLSCAASGFNIKDTYMHWVRQAPGKGLEWVARIDPAQGNTKYADSVKGRFTISADTSKNTAYLQMNSLRAEDTAVYYCAPFGYYVSDYAMAYWGQGTLVTVSS VL 1: DIQLTQSPSSLSASVGDRVTITCRAGESVDIFGVGFLHWYQQKPGKAPKLLIYRASNLESGVPSRFSGSGSRTDFTLTISSLQPEDFATYYCQQTNEDPYTFGQGTKVEIK VH 2: EVQLVESGGGLVKPGGSLKLSCAASGFTFSTYAMNWVRQAPGKGLEWVARIRSNYNNYATYYADSVKDRFTISRDDSKNTAYLQMNNLRTEDTAVYYCVRHGNWGNSYISYWAYWGQGTTVTVSS VL 2: not shown | – | – | – | – | 3100 | -0.27 | 10700 | 13800 | 11.3 | -1.92 | 93.6 | 105 | 0.00337 | -1.81 | 4.06 | 4.06 | 63.8 | -0.332 | 34.6 | 98.5 |
| CEA/CD3OPT2 (bispecific antibody, V domains shown) VH 1: EVQLVESGGGLVQPGGSLRLSCAASGFNIKDTYMHWVRQAPGKGLEWVARIDPAQGNTKYADSVKGRFTISADTSKNTAYLQMNSLRAEDTAVYYCAPFGYYVSDYAMAYWGQGTLVTVSS VL 1: DIQLTQSPSSLSASVGDRVTITCRAGESVDIFGVGFLHWYQQKPGKAPKLLIYRASNLESGVPSRFSGSGSRTDFTLTISSLQPEDFATYYCQQTNEDPYTFGQGTKVEIK VH 2: EVQLVESGGGLVKPGGSLKLSCAASGFTFNKYAMNWVRQAPGKGLEWVARIRSNYNNYATTFADSVKDRFTISRDDSKNTAYLQMNNLRTEDTAVYYCVRHGNFGNSYISYWAYWGQGTTVTVSS VL 2: not shown | 88.9 | -2.09 | -30.4 | 58.5 | – | – | – | – | – | – | – | – | – | – | – | – | – | – | – | – |
| CEA/CD3OPT3 (bispecific antibody, V domains shown) VH 1: EVQLVESGGGLVQPGGSLRLSCAASGFNIKDTYMHWVRQAPGKGLEWVARIDPAQGNTKYADSVKGRFTISADTSKNTAYLQMNSLRAEDTAVYYCAPFGYYVSDYAMAYWGQGTLVTVSS VL 1: DIQLTQSPSSLSASVGDRVTITCRAGESVDIFGVGFLHWYQQKPGKAPKLLIYRASNLESGVPSRFSGSGSRTDFTLTISSLQPEDFATYYCQQTNEDPYTFGQGTKVEIK VH 2: EVQLVESGGGLVKPGGSLKLSCAASGFTFNKYAMNWVRQAPGKGLEWVARIRSKYNNYATYYADSVKDRFTISRDDSKNTAYLQMNNLRTEDTAVYYCVRHGQWGNSYISYWAYWGQGTTVTVSS VL 2: not shown | 119 | -5.66 | -41.4 | 78 | – | – | – | – | – | – | – | – | – | – | – | – | – | – | – | – |
| CEA/CD3OPT1a (bispecific antibody, V domains shown, Same format as m1; also called OPTSP34 1a; copies: 2 + 2 + 2 + 2) VH 1: EVQLVESGGGLVQPGGSLRLSCAASGFNIKDTYMHWVRQAPGKGLEWVARIDPAQGNTKYADSVKGRFTISADTSKNTAYLQMNSLRAEDTAVYYCAPFGYYVSDYAMAYWGQGTLVTVSS VL 1: DIQLTQSPSSLSASVGDRVTITCRAGESVDIFGVGFLHWYQQKPGKAPKLLIYRASNLESGVPSRFSGSGSRTDFTLTISSLQPEDFATYYCQQTNEDPYTFGQGTKVEIK VH 2: EVQLVESGGGLVKPGGSLKLSCAASGFTFSTYAMNWVRQAPGKGLEWVARIRSKYNNYATYYADSVKDRFTISRDDSKNTAYLQMNNLRTEDTAVYYCVRHGNFGNSYISYWAYWGQGTTVTVSS VL 2: not shown | 49.9 | -0.801 | 1150 | 1200 | 1570 | -0.0022 | 130000 | 132000 | 17.3 | -2.81 | 89.2 | 106 | 0.0666 | -1.32 | 4.02 | 4.09 | 52.5 | -0.944 | 51.7 | 104 |
| CEA/CD3OPT1a3b (bispecific antibody, V domains shown, Same format as m1; also called OPT SP34 1a3b; copies: 2 + 2 + 2 + 2) VH 1: EVQLVESGGGLVQPGGSLRLSCAASGFNIKDTYMHWVRQAPGKGLEWVARIDPAQGNTKYADSVKGRFTISADTSKNTAYLQMNSLRAEDTAVYYCAPFGYYVSDYAMAYWGQGTLVTVSS VL 1: DIQLTQSPSSLSASVGDRVTITCRAGESVDIFGVGFLHWYQQKPGKAPKLLIYRASNLESGVPSRFSGSGSRTDFTLTISSLQPEDFATYYCQQTNEDPYTFGQGTKVEIK VH 2: EVQLVESGGGLVKPGGSLKLSCAASGFTFSTYAMNWVRQAPGKGLEWVARIRSKYNNYATYYADSVKDRFTISRDDSKNTAYLQMNNLRTEDTAVYYCVRHGNWGNSYISYWAYWGQGTTVTVSS VL 2: not shown | – | – | – | – | 1600 | -0.102 | 62800 | 64500 | 12.1 | -2.69 | 96.6 | 109 | 0.00304 | -1.84 | 4.03 | 4.03 | 64.6 | -0.946 | 39.4 | 104 |
